Experimental data taken from PMC6799845, “On-chip structure-switching aptamer-modified magnetic nanobeads for the continuous monitoring of interferon-gamma ex vivo”.

Legend:
PSA = PSA (UniProt P07288 25-261); assay: electrochemistry (on-chip bead-bound aptamer); 1 mg/mL; no significant signal (<15%); Buffer C: 100 mM Tris-HCl pH 7.4, 100 mM NaCl, 1 mM MgCl2, 5 mM KCl; room temperature (optimized conditions stated as pH 7.5, 100 mM salt); details: protein: commercial; label: 5'-ferrocene; 3'-biotin (on streptavidin magnetic beads); hairpin
IL-6 = IL-6 (UniProt P05231 30-212); assay: electrochemistry (on-chip bead-bound aptamer); 1 ng/mL; no significant signal (<15%); Buffer C: 100 mM Tris-HCl pH 7.4, 100 mM NaCl, 1 mM MgCl2, 5 mM KCl; room temperature (optimized conditions stated as pH 7.5, 100 mM salt); details: protein: commercial; label: 5'-ferrocene; 3'-biotin (on streptavidin magnetic beads); hairpin
TNF-α = TNF-α (UniProt P01375 77-233); assay: as above; details: protein: commercial; chain copies: 3; label: 5'-ferrocene; 3'-biotin (on streptavidin magnetic beads); hairpin
interferon gamma (IFN-γ) = interferon gamma (IFN-γ) (human, UniProt P01579 24-166); assay: electrochemistry (SWV, on-chip bead-bound aptamer); 1 mM Mg2+, 5 mM K+; from calibration-curve midpoint (100 pg/mL) (so in the source); Buffer C: 100 mM Tris-HCl pH 7.4, 100 mM NaCl, 1 mM MgCl2, 5 mM KCl; room temperature (optimized conditions stated as pH 7.5, 100 mM salt); details: protein: recombinant; chain copies: 2; label: 5'-ferrocene; 3'-biotin (on streptavidin magnetic beads); hairpin
interferon gamma (IFN-γ), sequence (P01579 24-166): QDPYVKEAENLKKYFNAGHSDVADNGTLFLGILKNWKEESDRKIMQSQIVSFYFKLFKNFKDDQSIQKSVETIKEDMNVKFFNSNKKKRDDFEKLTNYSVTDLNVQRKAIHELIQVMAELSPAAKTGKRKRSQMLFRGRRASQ

PSA, sequence (P07288 25-261): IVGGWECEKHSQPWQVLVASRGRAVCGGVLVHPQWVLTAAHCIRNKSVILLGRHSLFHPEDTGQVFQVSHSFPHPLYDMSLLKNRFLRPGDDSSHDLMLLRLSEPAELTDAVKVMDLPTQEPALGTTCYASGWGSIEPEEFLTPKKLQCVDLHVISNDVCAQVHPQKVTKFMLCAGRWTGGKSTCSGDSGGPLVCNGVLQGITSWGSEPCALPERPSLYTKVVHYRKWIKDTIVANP
TNF-α, sequence (P01375 77-233): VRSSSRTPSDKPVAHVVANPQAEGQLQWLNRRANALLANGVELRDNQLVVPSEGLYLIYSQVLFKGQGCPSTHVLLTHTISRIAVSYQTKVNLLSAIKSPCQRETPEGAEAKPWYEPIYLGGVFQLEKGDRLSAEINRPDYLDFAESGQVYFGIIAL
IL-6, sequence (P05231 30-212): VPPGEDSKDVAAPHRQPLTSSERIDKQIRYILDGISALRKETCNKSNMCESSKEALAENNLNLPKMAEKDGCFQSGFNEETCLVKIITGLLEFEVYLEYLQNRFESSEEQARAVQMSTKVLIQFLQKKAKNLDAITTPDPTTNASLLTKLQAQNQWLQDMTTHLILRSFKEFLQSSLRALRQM

B1: Fc-labeled IFN-γ hairpin aptamer (MB-aptamer) (structured_DNA)
DNA: GGGGTTGGTTGTGTTGGGTGTTGTGTCCAACCCC
B1: no binding (PSA); no binding (IL-6); no binding (TNF-α). It also gave a Ka (interferon gamma (IFN-γ)) of ~2.1e+10 M⁻¹.
